Experimental data: publication PMC6280533, “Construction and characterization of a synthetic Baculovirus-inducible 39K promoter”

B1: 39K probe 3 (-310 to -355) (dsDNA)
DNA 1: AATATTTTAATTATATGAACGACAAACAATTGATCACGTACGATTA
DNA 2: TAATCGTACGTGATCAATTGTTTGTCGTTCATATAATTAAAATATT
B2: 39K probe 2 (-386 to -431) (dsDNA)
DNA 1: GACTATCGTATAATATTAAAACCGCGACGCTTCAATTGCGAAATAA
DNA 2: TTATTTCGCAATTGAAGCGTCGCGGTTTTAATATTATACGATAGTC
B3: 39K probe 1 (-486 to -532) (dsDNA)
DNA 1: AGTATTTGATATACGTAGGCGTCGTGCGCGGCAACTTGATTGACGTG
DNA 2: CACGTCAATCAAGTTGCCGCGCACGACGCCTACGTATATCAAATACT
B4: 39K probe 4 (+2 to +47) (dsDNA)
DNA 1: AGTAATTACCGACAAATGTTCTAAGCGTAAGGTGTGTCTTCATCAC
DNA 2: GTGATGAAGACACACCTTACGCTTAGAACATTTGTCGGTAATTACT

Experiments:
[1] = target: T1, IE-1 (IE1-His) (Bombyx mori nucleopolyhedrovirus (BmNPV), UniProt P33245 1-587); assay: EMSA; probe 1, 2, 6 pmol/L; IE-1 0.8 ug/L (so in the source); settings: protein: recombinant; tags: His (pCold-I); chain copies: 2; label: 5' biotin; blunt
T1 sequence: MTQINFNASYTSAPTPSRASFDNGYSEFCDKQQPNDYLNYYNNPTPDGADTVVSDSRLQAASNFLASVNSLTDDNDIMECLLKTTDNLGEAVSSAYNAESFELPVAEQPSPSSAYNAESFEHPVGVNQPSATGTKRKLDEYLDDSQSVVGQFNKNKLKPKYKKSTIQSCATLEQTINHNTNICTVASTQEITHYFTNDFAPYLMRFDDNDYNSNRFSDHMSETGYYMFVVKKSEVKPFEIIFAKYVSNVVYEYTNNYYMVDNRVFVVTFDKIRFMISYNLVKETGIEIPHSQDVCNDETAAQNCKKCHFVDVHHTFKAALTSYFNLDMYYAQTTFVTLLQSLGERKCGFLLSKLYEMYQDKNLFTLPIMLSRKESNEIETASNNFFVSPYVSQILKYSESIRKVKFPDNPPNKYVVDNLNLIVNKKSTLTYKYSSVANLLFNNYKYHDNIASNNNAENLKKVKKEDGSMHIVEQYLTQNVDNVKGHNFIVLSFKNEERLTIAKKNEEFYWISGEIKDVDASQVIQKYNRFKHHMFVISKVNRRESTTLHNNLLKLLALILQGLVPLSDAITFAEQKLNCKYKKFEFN

[2] = target: T1, IE-1 (IE1-His); assay: EMSA; settings: protein: recombinant; tags: His (pCold-I); chain copies: 2; label: 5' biotin; blunt

Binder	binding result [1]	binding result [2]
B1	binds	–
B2	–	no binding
B3	–	no binding
B4	–	no binding
